Source: PMC4255369 (2014)

Assays:
Assay in all cases: SPR
[1] = biological target: mis-disordered tau protein 151-391/4R (human, UniProt P10636-8 151-391)
[2] = biological target: mis-disordered tau 151-391/3R (human, UniProt P10636-5 151-391)
[3] = biological target: human tau protein isoform 2N4R (human, UniProt P10636-8 1-441)
[4] = biological target: human tau protein isoform 2N3R (human, UniProt P10636-5 1-410)
Sequence of human tau protein isoform 2N3R (P10636 other isoform, or with tags, fused parts or gaps): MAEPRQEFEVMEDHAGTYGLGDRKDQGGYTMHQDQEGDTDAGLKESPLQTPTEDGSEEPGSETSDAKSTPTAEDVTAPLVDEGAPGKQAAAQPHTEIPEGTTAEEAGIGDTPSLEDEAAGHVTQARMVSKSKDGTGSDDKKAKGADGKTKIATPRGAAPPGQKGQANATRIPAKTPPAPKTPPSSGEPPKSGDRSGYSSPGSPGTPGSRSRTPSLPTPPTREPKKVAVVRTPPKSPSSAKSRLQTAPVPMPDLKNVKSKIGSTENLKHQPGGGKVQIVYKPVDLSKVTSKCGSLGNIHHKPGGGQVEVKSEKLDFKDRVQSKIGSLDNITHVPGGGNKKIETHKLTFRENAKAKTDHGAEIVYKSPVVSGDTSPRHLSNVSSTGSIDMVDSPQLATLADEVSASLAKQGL

Sequence of mis-disordered tau protein 151-391/4R (P10636 468-708): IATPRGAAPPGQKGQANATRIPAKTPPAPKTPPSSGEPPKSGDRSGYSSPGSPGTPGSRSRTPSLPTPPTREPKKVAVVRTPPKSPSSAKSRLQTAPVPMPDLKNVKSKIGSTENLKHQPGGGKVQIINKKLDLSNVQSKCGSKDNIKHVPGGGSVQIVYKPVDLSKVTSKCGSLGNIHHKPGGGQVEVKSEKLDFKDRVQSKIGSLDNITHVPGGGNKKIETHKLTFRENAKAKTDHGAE
Sequence of human tau protein isoform 2N4R (P10636 other isoform, or with tags, fused parts or gaps): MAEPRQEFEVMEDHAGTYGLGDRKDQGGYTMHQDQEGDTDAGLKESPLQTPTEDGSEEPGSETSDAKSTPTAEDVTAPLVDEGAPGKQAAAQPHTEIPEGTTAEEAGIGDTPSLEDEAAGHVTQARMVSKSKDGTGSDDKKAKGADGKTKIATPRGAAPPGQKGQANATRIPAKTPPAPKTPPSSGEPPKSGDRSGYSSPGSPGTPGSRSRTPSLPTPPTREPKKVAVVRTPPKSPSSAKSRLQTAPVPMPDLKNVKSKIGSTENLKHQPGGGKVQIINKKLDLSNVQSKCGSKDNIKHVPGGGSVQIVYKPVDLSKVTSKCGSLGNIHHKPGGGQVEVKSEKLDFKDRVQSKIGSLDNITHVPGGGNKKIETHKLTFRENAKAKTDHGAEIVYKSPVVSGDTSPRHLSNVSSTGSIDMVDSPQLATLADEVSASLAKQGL
Sequence of mis-disordered tau 151-391/3R (P10636 other isoform, or with tags, fused parts or gaps): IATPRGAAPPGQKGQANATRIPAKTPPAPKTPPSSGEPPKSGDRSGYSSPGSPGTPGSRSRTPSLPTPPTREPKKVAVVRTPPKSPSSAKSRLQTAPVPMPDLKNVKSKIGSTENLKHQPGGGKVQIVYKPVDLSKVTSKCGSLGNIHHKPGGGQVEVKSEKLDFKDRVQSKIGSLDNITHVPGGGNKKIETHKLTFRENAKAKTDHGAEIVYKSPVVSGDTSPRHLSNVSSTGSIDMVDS

B1: monoclonal antibody DC8E8 (antibody, V domains shown)
VH: QVQLQQSGPELVKPGTSVKMPCKASGYIFTDYVISWVKQRTGQGLEWIGEIFPRSGSTYYNEKFKGKATLTADKSSNTAYMQLSSVTSEDSAVYFCARDYYGTSFAMDYWGQGTSVTVSS
VL: DIVMSQSPSSLAVSAGEKVTMSCKSSQSLLNSRTRKNYLAWYQQKPGQSPKLLIYWASTRESGVPDRFTGSGSGTDFTLTISSVQAEDLAVYYCKQSFYLRTFGGGTKLDIK
Ka [1]: 7.3e+07 M⁻¹
Ka [2]: 1.9e+06 M⁻¹
Ka [3]: 1.1e+07 M⁻¹
Ka [4]: 80000 M⁻¹
